From US20070298510A1 (CANON, published 2007)

Biological target: T1, hen egg-white lysozyme (hen, UniProt P00698 19-147)
T1 construct: In solution in phosphate-buffered saline, captured in a sandwich between the first and second peptide molecules; also called HEL; target substance 173
Experiment: sandwich on TMR element: immobilized scFv, HEL, Fab on magnetic beads; magnetic read-out

T1 sequence (P00698 19-147): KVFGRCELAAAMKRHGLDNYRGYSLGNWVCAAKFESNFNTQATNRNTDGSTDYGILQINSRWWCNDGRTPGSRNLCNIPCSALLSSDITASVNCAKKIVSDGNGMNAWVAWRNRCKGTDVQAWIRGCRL

B1: HyHEL10 scFv (single chain Fv of an anti-HEL antibody) (scFv)
scFv: DIVLTQSPATLSVTPGNSVSLSCRASQSIGNNLHWYQQKSHESPRLLIKYASQSISGIPSRFSGSGSGTDFTLSINSVETEDFGMYFCQQSNSWPYTFGGGTKLIITAGGGGSGGGGSGGGGSDIQLQESGPSLVKPSQTLSLTCSVTGDSITSDYWSWIRKFPGNRLEYMGYVSYSGSTYYNPSLKSRISITRDTSKNQYYLDLNSVTTEDTATYYCANWDGDYWGQGTLVTVSA
notes: Purified as a His-tag-fused polypeptide; In the assay it was immobilized on the silicon film or substrate via aminosilane and glutaraldehyde; also called scFv of the anti-HEL antibody; scFv of the HEL antibody
Q: Does B1 bind?
A: binds
